Data taken from the supplement of paper PMC9170038.

System: MS2 coat protein
Test: apparent KD of MS2 coat protein; higher = weaker reporter binding
Settings: Eterna round: R107
Summary of the method: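 Apparent KD per design is the median of normalised cluster binding-curve fits. Designed RNA switches transcribed on-chip from Illumina sequencing clusters were titrated with SNAP-549-labelled MS2 coat protein in twofold steps from 0.7 or 1.5 nM to 3 µM, with 0.8–1.5 h down to 10–20 min per step. Buffer: 100 mM Tris-HCl pH 7.5, 80 mM KCl, 4 mM MgCl2, without or with constant ligand.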

[1] = input ligand: theophylline 20 uM
[2] = input ligand: theophylline 2 mM
[3] = input ligand: tryptophan 2.4 mM

Sequence | apparent KD of MS2 coat protein (input ligand: arginine 13.2 mM) [nM] | apparent KD of MS2 coat protein (input ligand: none) [nM] | apparent KD of MS2 coat protein [1] [nM] | apparent KD of MS2 coat protein [2] [nM] | apparent KD of MS2 coat protein [3] [nM]
CGGCCCUCACCUGAGGAUCACCCAGGUGAUACCAGCCUGGAAACAGGCCCUUGGCAGCACCAGGUCAUCAAAGAUGACCAAGCCG [TheoAX 23 #SwitchBubble] | 9.35 | 10.5 | 15.2 | 128 | 10.9
CGGGACAUGAGGAUCACCCAUGUACGAUCCCGAGGACCGGUACGGCCGCCACUCGCUAGCGUUGAGUCGCGACUUUCAUAACUAA [theeternabot_sameState_MS2_Trp_A_27] | 36.7 | – | 92.2 | 83.2 | –
CGGGUUAGGGCGGCCGCCACUGUGGCUACGGUACAUGAGGAUCACCCAUGUUUGUGGUUGAUCUACAGGACCGGGCCCUGACACG [Geusrean] | 440 | 102 | 865 | 2560 | 203
CGUACAUGAGGAUCACCCAUGUAGAGUGAUACCAGUCUACCUAGUGACCCUUGGCAGCACAUCGAUGGCAUCGGUGAUGCCGUUU [Atveti] | 70.1 | – | 116 | – | 117
CUACAUUUGUAGAAACCGGUCAACAAUAAUCGAGGACCGGUACGGCCGCCACUCGUAUAAUUUUAUACAUGAGGAUCACCCAUGU [Tryptophan A 3] | 13.7 | – | 16.5 | 16.5 | –
CUAGAUGGAAACGUCUGGACGCACAAGCGACGAGGACCGGUACGGCCGCCACUCGAAGAGUGGUGGACAUGAGGAUCACCCAUGU [Design 4 MOD] | 36.5 | – | 87.4 | 78 | –
CUAUAAUGAAAACAUUAUAGAGUGGGUGAACGAGGACCGGUACGGCCGCCACUCGGACAUGAGGAUCACCCAUGUCCAUGUGAAA [AstrosExyTryA#24] | 11.2 | 15.6 | 18.9 | 17.7 | 31.9
CUCCUGGGAGCGGCCGCCACUGGAGGCCUUGCGCGACAUGAGGAUCACCCAUGUUGUCCCGGCCUCAGGACCGGGUUCGCGCGAG [Same State - Tryptophan B Attempt #1] | 6.5 | 8.09 | 10.2 | 9.71 | 8.67
CUCUGAGUCCGAAAGGACUCAGAGGCGGAUACCAGCGAGGUCCAUCGCCCUUGGCAGCCGAACAUGAGGAUCACCCAUGUCGGUA [#1 Same State - Theophylline A Attempt #28 (HarryS)] | 9.74 | – | 12.1 | – | 11.2
CUUAUAUAUAGAAGGAGCGACAUGAGGAUCACCCAUGUCUACCACGUCGAAAGACGCUCAUGUCAGGUAGGUCGCUAUAUAUAAG [Astros-Eli-mod3] | 42.5 | 152 | 138 | 172 | 120
GACCGAUUAUAGCGCGAUUGUCUUGUGGAAGGAGCGCAGAGGGCUGCAGGUAGGUCGCCACAUGAGGAUCACCCAUGUCAGGAUA [Ananvediri] | 30.5 | 20.2 | 53.4 | 35.8 | 30.9
GACCUUGCGGGCGCCCGCAAGGUUGCGGAUACCAGCGAGGUCCAUCGCCCUUGGCAGCCGAACAUGAGGAUCACCCAUGUCGGAC [Same State - Theophylline A Attempt #3 (HarryS)] | 10.3 | 11.4 | 18.2 | 15.8 | 11.2
GAGACGUCGGGAAGGAGCGCAUCCAAACCACACAUGAGGAUCACCCAUGUAUAAAUAUGCAUGCAGGUAGGUCGCCCGGUGUCCA [Xegeisge] | 49.9 | 85.7 | 120 | 114 | 86.1
GAGCUGAUGUAGAGAUUUUAUUUCUGAGAUACCAGUACAGAAAUGUACCCUUGGCAGCUCAGCUUUACAUGAGGAUCACCCAUGU [Ex Theophylline A 16] | 16.9 | – | 17.8 | – | 17.6
GAGGACAUGAGGAUCACCCAUGUAAAUGAUACCAGUUGAGAGAGAGGCCCUUGGCAGCGUAAACAUGACAGCGAGCGAGAGUGCG [ss-theoA-0] | 16.3 | 13.1 | 19.2 | 15.3 | 14.6
GAGGAUCAAGUAGAUACCAGCACAUGAGGAUCACCCAUGUAAUGGUGUCCCUCAAGAACGUGCCCUUGGCAGCUACUAUCAAAAU [Enarbeer] | 24.6 | – | 20.5 | – | 14.7
GAUAGUUGAAGGGAUACCAGCCUGGACAUGAGGAUCACCCAUGUAGCGUGUUUGAAACUGGGCCCUUGGCAGCCCAUAUUGUGUA [Same State - Theophylline B / A] | 16.3 | – | 17.6 | – | 15.2
GAUAUAACAAAAGUUGUAUCAGUGGGUGAACGAGGACCGGUACGGCCGCCACUCGGACAUGAGGAUCACCCAUGUCCAUGUGAAA [AstrosExyTryA#18] | 11.6 | 14.7 | 23.1 | 19.8 | 44.3
